Assay results from the supplement of paper PMC7877785.
± gives the uncertainty stated by the source.

Assay: self-splicing fitness, log relative to wild type (ln ratio); higher = more splicing; Tetrahymena group I intron in knt gene, E. coli kanamycin selection, DiMSum; sequences stand for … in CUCUCU…GGAGGGAAAAGUUAUCAGGCAUGCACCUGGUAGCUAGUCUUUAAACCAAUAGAUUGCAUCGGUUUAAAAGGCAAGACCGUCAAAUUGCGGGAAAGGGGUCAACAGCCGUUCAGUACCAAGUCUCAGGGGAAACUUUGAGAUGGCCUUGCAAAGGGUAUGGUAAUAAGCUGACGGACAUGGUCCUAACCACGCAGCCAAGUCCUAAGUCAACAGAUCUUCUGUUGAUAUGGAUGCAGUUCACAGACUAAAUGUCGGUCGGGGAAGAUGUAUUCUUCUCAUAAGAUAUAGUCGGACCUCUCCUUAAUGGGAGCUAGCGGAUGAAGUGAUGCAACACUGGAGCCGCUGGGAACUAAUUUGUAUGCGAAAGUAUAUUGAUUAGUUUUGGAGUACUCGUGGUCG
How it was run: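 Fitness was computed with DiMSum as the error-weighted combination of replicate fold changes, kanamycin versus none, each normalised to wild type. The library randomised all eight intron nucleotides of the P1ex region, with the intron placed in the knt kanamycin-resistance gene on pET-22b(+) in E. coli BL21(DE3). Six replicate transformations were grown overnight at 37°C or 30°C on LB agar with or without 25 μg/mL kanamycin, plus 100 μg/mL carbenicillin, 50 μM IPTG and 0.2% rhamnose. Pooled colonies were amplicon-sequenced on an Illumina HiSeq 2500.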

Sequence | self-splicing fitness (ln) (30 °C) | self-splicing fitness (ln) (37 °C)
UAGGAGCAAUAUUACGACUU | -0.556 ± 0.14 | 0.485 ± 0.19
GCGGAGCAAUAUUACGCCUU | – | -2.17 ± 0.49
CUCGAGCAAUAUUACGACUA | -3.02 ± 0.33 | -0.507 ± 0.21
UGGUAGCAAUAUUACGGUUU | -2.64 ± 0.17 | -2.6 ± 0.23
UACUAGCAAUAUUACGCCUA | -0.895 ± 0.14 | 0.591 ± 0.13
GCCGAGCAAUAUUACGGUUG | -1.38 ± 0.14 | -0.555 ± 0.19
UUAGAGCAAUAUUACGCGAC | -3.78 ± 0.37 | –
CGAAAGCAAUAUUACGUAUU | -3.3 ± 0.15 | -1.51 ± 0.13
AGUUAGCAAUAUUACGUUGG | -2.67 ± 0.19 | -2.3 ± 0.21
AUUAAGCAAUAUUACGCACU | -0.21 ± 0.13 | -0.414 ± 0.13
GGAUAGCAAUAUUACGGGGC | -3.69 ± 0.23 | -1.95 ± 0.16
CACGAGCAAUAUUACGGAUU | -3.86 ± 0.3 | -2.47 ± 0.26
GGGGAGCAAUAUUACGUUAC | -3.54 ± 0.38 | -1.07 ± 0.26
GUAGAGCAAUAUUACGCACU | -1.24 ± 0.25 | 0.332 ± 0.23
AUGCAGCAAUAUUACGCCGG | -1.72 ± 0.15 | -0.877 ± 0.21
CUCUAGCAAUAUUACGUUAU | -3.92 ± 0.4 | -2.16 ± 0.25
UCUCAGCAAUAUUACGACCA | -0.757 ± 0.13 | -0.615 ± 0.14
GAGGAGCAAUAUUACGCCUA | -1.68 ± 0.27 | -0.955 ± 0.16
AUCUAGCAAUAUUACGGUCU | -0.756 ± 0.078 | -0.908 ± 0.098
UCUGAGCAAUAUUACGUCGA | -0.0432 ± 0.089 | 0.353 ± 0.12
ACUAAGCAAUAUUACGCUGA | -2.16 ± 0.17 | -1.31 ± 0.15
CAGUAGCAAUAUUACGUUGU | -4.7 ± 0.28 | -3.14 ± 0.24
CCAGAGCAAUAUUACGCCUG | – | -2.66 ± 0.36
AUUAAGCAAUAUUACGGGUC | -2.81 ± 0.21 | -3.49 ± 0.37
ACUGAGCAAUAUUACGCGCG | -1.14 ± 0.11 | -0.367 ± 0.12

Sequence | self-splicing fitness (ln) (30 °C) | self-splicing fitness (ln) (37 °C)
ACAGAGCAAUAUUACGUGAC | -3.76 ± 0.24 | -1.6 ± 0.17
GGCGAGCAAUAUUACGUUAU | -3.17 ± 0.17 | -1.3 ± 0.16
AGUGAGCAAUAUUACGAUUC | -2.97 ± 0.28 | -1.27 ± 0.33
UCCAAGCAAUAUUACGGGGU | -2.76 ± 0.11 | -1.96 ± 0.13
CAAUAGCAAUAUUACGGGGC | -2.73 ± 0.22 | -2.45 ± 0.23
UCCGAGCAAUAUUACGCCUU | -2.35 ± 0.35 | –
UGAUAGCAAUAUUACGAUAG | -0.826 ± 0.28 | -0.505 ± 0.32
AUCUAGCAAUAUUACGUAUC | -3.29 ± 0.24 | -1.74 ± 0.39
GCUCAGCAAUAUUACGCACA | -1.05 ± 0.1 | 0.0263 ± 0.11
AUGCAGCAAUAUUACGGGAG | -3.13 ± 0.17 | -2.11 ± 0.13
CCUGAGCAAUAUUACGGUGU | -3.89 ± 0.24 | -2.32 ± 0.14
UUAGAGCAAUAUUACGCGCU | -1.84 ± 0.41 | -1.11 ± 0.47
ACUUAGCAAUAUUACGCCCG | -1.55 ± 0.17 | 0.138 ± 0.28
UCCCAGCAAUAUUACGAAGG | -3.68 ± 0.23 | -1.63 ± 0.23
UCUAAGCAAUAUUACGACAG | -1.58 ± 0.1 | -0.799 ± 0.15
UGCAAGCAAUAUUACGCCGG | -2.06 ± 0.13 | -0.615 ± 0.17
UGAAAGCAAUAUUACGGCAG | -0.742 ± 0.094 | -0.105 ± 0.11
UUCGAGCAAUAUUACGCAUC | -2.83 ± 0.39 | –
CAAAAGCAAUAUUACGGGUG | -0.689 ± 0.046 | -0.361 ± 0.076
GCAGAGCAAUAUUACGUUUA | -2.56 ± 0.3 | –
AAACAGCAAUAUUACGCCAC | – | -1.77 ± 0.31
CAUGAGCAAUAUUACGGGCG | -0.135 ± 0.075 | 0.178 ± 0.092
UCUUAGCAAUAUUACGGUGU | -2.83 ± 0.12 | -1.23 ± 0.12
UUCAAGCAAUAUUACGCUUA | -1.32 ± 0.096 | -1.2 ± 0.096
GGCGAGCAAUAUUACGCUAU | -2.55 ± 0.21 | -1.11 ± 0.18
